According to patent US20140134657:

T1: PfSUB1 peptide substrate KLVSADNIDIS, tagged with fluorophore and quencher
T1 chain: KLVSADNIDIS

T2: PvSUB1 peptide substrate KLVGADDVSLA, tagged with fluorophore and quencher
T2 chain: KLVGADDVSLA


Key:
[1] = biological target: T1, PfSUB1 peptide substrate KLVSADNIDIS, …
[2] = biological target: T2, PvSUB1 peptide substrate KLVGADDVSLA, …

Row | Protein | apparent Km [1] | apparent Km [2]
1 | recombinant Plasmodium falciparum SUB1 (PfSUB1) (protein) MLLVNQSHQGFNKEHTSKMVSAIVLYVLLAAAAHSAFAADLGSKEVRSEENGKIQDDAKKIVSELRFLEKVEDVIEKSNIGGNEVDADENSFNPDTEVPIEEIEEIKMRELKDVKEEKNKNDNHNNNNNNISSSSSSSSNTFGEEKEEVSKKKKKLRLIVSENHATTPSFFQESLLEPDVLSFLESKGNLSNLKNINSMIIELKEDTTDDELISYIKILEEKGALIESDKLVSADNIDISGIKDAIRRGEENIDVNDYKSMLEVENDAEDYDKMFGMFNESHAATSKRKRHSTNERGYDTFSSPSYKTYSKSDYLYDDDNNNNNYYYSHSSNGHNSSSRNSSSSRSRPGKYHFNDEFRNLQWGLDLSRLDETQELINEHQVMSTRICVIDSGIDYNHPDLKDNIELNLKELHGRKGFDDDNNGIVDDIYGANFVNNSGNPMDDNYHGTHVSGIISAIGNNNIGVVGVDVNSKLIICKALDEHKLGRLGDMFKCLDYCISRNAHMINGSFSFDEYSGIFNSSVEYLQRKGILFFVSASNCSHPKSSTPDIRKCDLSINAKYPPILSTVYDNVISVANLKKNDNNNHYSLSINSFYSNKYCQLAAPGTNIYSTAPHNSYRKLNGTSMAAPHVAAIASLIFSINPDLSYKKVIQILKDSIVYLPSLKNMVAWAGYADINKAVNLAIKSKKTYINSNISNKWKKKSRYLHHHHHH | 30.2 µM±3.4 | 
2 | recombinant enzymatically active form of Plasmodium vivax SUB1-Belem (PvSUB1-Belem), following auto-maturation at the KLVGAD//DVSLA site (protein) DVSLASVKDAVRRGESSVNWGKLRSTMLEVPSGESPPSHAASSGSPFDDDDDLLSEAALHREEAHLAGSKTTKGYKFNDEYRNLQWGLDLARLDETQDLINANRVSVTKICVIDSGIDYNHPDLRNNIDVNVKELHGRKGVDDDSNGVVDDVYGANFVNNSGDPMDDNYHGTHVSGIISAVGNNGIGIVGVDGHSKLVICKALDQHKLGRLGDMFKCIDYCISRQAHMINGSFSFDEYSNIFNASVEHLRSLGILFFVSASNCAHDKLSKPDIAKCDLAVNHRYPPILSKTHNNVIAVANLKRDLDESYSLSVNSFYSNIYCQLAAPGTNIYSTTPMNNYRKLNGTSMASPHVAAIASIVRSINPNLTYLQIVEILRNAIVKLPSLTERVSWGGYVDILRAVNLAIDSKAAPYIKSHSWFRWKQGSRRHHHHHH |  | 19.7 µM±1.7
